In US20060183888A1:

Substrate: C[C@@H]1CC=N[C@H]1C(=O)NCCCC[C@H](N)C(=O)O
Experiment: purified protein, by the assay type
Settings: other: 37° C., pH 7.2
Description: The pyrophosphate exchange reaction was essentially performed following the method of Cole and Schimmel. All reactions were performed in duplicate at 37° C. The 100 to 200 μl reactions contained (unless noted) 0.3 to 1 HM PylSHis6. […] The specific activity of the radiolabel was adjusted from 4 to 10 dpm/pmol). The concentration of protein was 0.3 to 1 μM. At specific times, 25 μl aliquots were removed and quenched in 500 μl of a stop solution containing 1.6% (w/v) activated acid-washed charcoal (Sigma Chemical Co., St. Louis, Mo.), 80 mM sodium tetrapyrophosphate, and 3.5% (v/v) perchloric acid. Samples were filtered through Whatman GF/C glass-fiber filters and then the filter was washed three times with 5 ml of 40 mM sodium tetrasodium pyrophosphate solution containing 1.7% perchloric acid (v/v) and once with 5 ml 100% ethanol. Filters were dried at 80° C. for 5 minutes then placed in 20 ml scintillation vials containing 10 ml of Ultima Gold F scintillation cocktail (PerkinElmer), shaken once, and counted in a liquid scintillation analyzer. Identical reactions without amino acid, ATP, or enzyme were also set up as negative controls in duplicate.

B1: PylS-His6 (Methanosarcina barkeri) (protein)
chain: MDKKPLDVLISATGLWMSRTGTLHKIKHHEVSRSKIYIEMACGDHLVVNNSRSCRTARAFRHHKYRKTCKRCRVSDEDINNFLTRSTESKNSVKVRVVSAPKVKKAMPKSVSRAPKPLENSVSAKASTNTSRSVPSPAKSTPNSSVPASAPAPSLTRSQLDRVEALLSPEDKISLNMAKPFRELEPELVTRRKNDFQRLYTNDREDYLGKLERDITKFFVDRGFLEIKSPILIPAEYVERMGINNDTELSKQIFRVDKNLCLRPMLAPTLYNYLRKLDRILPGPIKIFEVGPCYRKESDGKEHLEEFTMVNFCQMGSGCTRENLEALIKEFLDYLEIDFEIVGDSCMVYGDTLDIMHGDLELSSAVVGPVSLDREWGIDKPWIGAGFGLERLLKVMHGFKNIKRASRSESYYNGISTNL
Km: 53 µM | kcat: 0.1 s⁻¹
